{
  "source": "patent WO2021105669A1",
  "about": "(dated 2021)",
  "binders": {"B1": {"name": "11892 (antibody, V domains shown)", "VH": "QSMEESGGRLVTPGTPLTLTCTVSGFSLSIYSMSWVRQAPGKGLEWIGIIYLGDRAYYASWAKGRFTISKTSSTTVDLKITSPTTEDTATYFCARVAGYAGYGYAFYDAFDPWGPGTLVTVSS", "VL": "DVVMTQTPASVSEPVGGTVTIKCQASQSIGSNLAWYQQKPGQPPKLLIYAASTLASGVPSRFKGSGSGTEFTLTINGVQCDDTATYYCQCTYYANTYVAETFGGGTEVVVK"}, "B2": {"name": "11881 (antibody, V domains shown)", "VH": "B1 VH", "VL": "B1 VL with N95S"}, "B3": {"name": "11886 (antibody, V domains shown)", "VH": "QSVEESGGRLVTPGTPLTLTCIVSGFSLSNYYMSWVRQVPGKGLEWIGVIGWSGTSSYASWAKGRFTISKTASTTVDLKITSPTTEDTATYFCARVLYIGGGFNYYDAFDPWGPGTLVTVSS", "VL": "DVVMTQTPASVSEPVGGTVTIKCQASQSIGSNLAWYQQKPGQPPKLLIYAASTLASGVPSRFKGSGSGTEFTLTISDLECADAATYYCQCTYYDSSYVYNNFGGGTEVVVK"}, "B4": {"name": "11889 (antibody, V domains shown)", "VH": "QSLEESGGDLVKPGASLTLTCTASGFSFSSSYWICWVRQAPGKGLEWIACIYAGSSGSTYYASWAKGRFTISKTSSTTVTLQMTSLTAADTATYFCATAYAVSAPFGYTLFKYFELWGPGTLVTVSS", "VL": "AVVLTQTASPVSAPVGGTVTIKCQASQNIYSDLAWYQQKPGQPPKLLIYDTSNLASGVSSRFKGSRSGTEFTLTISDLECADAATYYCQAYYYSSSSGDTTFGGGTEVVVK"}},
  "note": "Changes are numbered by the printed parent chain.",
  "data": [
    {"target": "TAFV GP (YP_003815426.1) (Tai Forest Ebola virus, UniProt Q66810 33-676)", "experiment": "flow cytometry on transiently transfected HEK293 cells", "values": [
      {"binder": "B1", "binding result": "binds"},
      {"binder": "B2", "binding result": "binds"},
      {"binder": "B3", "binding result": "binds"},
      {"binder": "B4", "binding result": "binds"}
    ]}
  ]
}
